# Literature values in publication PMC10173724.
# Biological target: FABP3 (Homo sapiens) (UniProt P05413)
substance,measurement,value
alpha-synuclein C-terminal peptide Y133F/Y136F 130-140 (from UniProt P37840),Kd,2.1 nM
